Earlier results, collected in publication PMC5148012.

Target: GP1bα (glycocalicin) glycocalicin (extracellular part) (Homo sapiens) (UniProt P07359)
Chain of UniProt P07359 (P07359 17-506): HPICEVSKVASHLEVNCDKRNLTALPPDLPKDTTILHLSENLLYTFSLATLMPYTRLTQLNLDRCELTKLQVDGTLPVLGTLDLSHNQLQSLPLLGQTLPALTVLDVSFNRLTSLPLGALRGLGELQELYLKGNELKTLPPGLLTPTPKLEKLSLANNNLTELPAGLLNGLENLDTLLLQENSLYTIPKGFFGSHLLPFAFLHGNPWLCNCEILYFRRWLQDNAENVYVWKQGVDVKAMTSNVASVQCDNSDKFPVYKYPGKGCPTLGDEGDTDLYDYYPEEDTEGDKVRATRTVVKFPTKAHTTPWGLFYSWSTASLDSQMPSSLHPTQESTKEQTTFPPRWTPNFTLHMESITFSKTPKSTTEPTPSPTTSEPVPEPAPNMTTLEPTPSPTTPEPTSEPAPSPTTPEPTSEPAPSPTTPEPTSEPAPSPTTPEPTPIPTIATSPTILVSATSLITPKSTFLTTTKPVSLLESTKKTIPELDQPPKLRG

Kd: 44.2 µM
Substance: HbA (from UniProt P69905)
